Reference: publication PMC5994540

B1: GluN3A subunit: DNJ (protein)
parent chain: MRRLSLWWLLSRVCLLLPPPCALVLAGVPSSSSHPQPCQILKRIGHAVRVGAVHLQPWTTAPRAASRAQEGGRAGAQRDDPESGTWRPPAPSQGARWLGSALHGRGPPGSRKLGEGAGAETLWPRDALLFAVENLNRVEGLLPYNLSLEVVMAIEAGLGDLPLMPFSSPSSPWSSDPFSFLQSVCHTVVVQGVSALLAFPQSQGEMMELDLVSSVLHIPVLSIVRHEFPRESQNPLHLQLSLENSLSSDADVTVSILTMNNWYNFSLLLCQEDWNITDFLLLTENNSKFHLESVINITANLSSTKDLLSFLQVQMDNIRNSTPTMVMFGCDMDSIRQIFEMSTQFGLSPPELHWVLGDSQNVEELRTEGLPLGLIAHGKTTQSVFEYYVQDAMELVARAVATATMIQPELALLPSTMNCMDVKTTNLTSGQYLSRFLANTTFRGLSGSIKVKGSTIISSENNFFIWNLQHDPMGKPMWTRLGSWQGGRIVMDSGIWPEQAQRHKTHFQHPNKLHLRVVTLIEHPFVFTREVDDEGLCPAGQLCLDPMTNDSSMLDRLFSSLHSSNDTVPIKFKKCCYGYCIDLLEQLAEDMNFDFDLYIVGDGKYGAWKNGHWTGLVGDLLSGTANMAVTSFSINTARSQVIDFTSPFFSTSLGILVRTRDTAAPIGAFMWPLHWTMWLGIFVALHITAIFLTLYEWKSPFGMTPKGRNRNKVFSFSSALNVCYALLFGRTAAIKPPKCWTGRFLMNLWAIFCMFCLSTYTANLAAVMVGEKIYEELSGIHDPKLHHPSQGFRFGTVRESSAEDYVRQSFPEMHEYMRRYNVPATPDGVQYLKNDPEKLDAFIMDKALLDYEVSIDADCKLLTVGKPFAIEGYGIGLPPNSPLTSNISELISQYKSHGFMDVLHDKWYKVVPCGKRSFAVTETLQMGIKHFSGLFVLLCIGFGLSILTTIGEHIVHRLLLPRIKNKSKLQYWLHTSQRFHRALNTSFVEEKQPRSKTKRVEKSRWRRWTCKTEGDSELSLFPRSNLGPQQLMVWNTSNLSHDNQRKYIFNDEEGQNQLGTQAHQDIPLPQRRRELPASLTTNGKADSLNVTRSSVIQELSELEKQIQVIRQELQLAVSRKTELEEYQKTNRTCES
B2: GluN3A subunit: kifunensine (protein)
parent chain: B1 parent chain
B3: GluN3A subunit: DMM (protein)
parent chain: B1 parent chain
B4: GluN3A subunit: swainsonine (protein)
parent chain: B1 parent chain
B5: GluN3A subunit: tunicamycin (protein)
parent chain: B1 parent chain
B6: GluN3A subunit: GluN3A-1/4N→Q (protein)
parent chain: B1 parent chain
B7: GluN3A subunit: PNGase F (protein)
parent chain: B1 parent chain
B8: GluN3A subunit: GluN3A-12N→12Q (protein)
parent chain: B1 parent chain
B9: GluN3A subunit: GluN3A-1/2N→Q (protein)
parent chain: B1 parent chain
B10: GluN3A subunit: GluN3A-2/2N→Q (protein)
parent chain: B1 parent chain
B11: GluN3A subunit: GluN3A-2/4N→Q (protein)
parent chain: B1 parent chain
B12: GluN3A subunit: GluN3A-3/4N→Q (protein)
parent chain: B1 parent chain
B13: GluN3A subunit: GluN3A-4/4N→Q (protein)
parent chain: B1 parent chain
B14: GluN3A subunit: N145Q (protein)
parent chain: B1 parent chain
B15: GluN3A subunit: N264Q (protein)
parent chain: B1 parent chain
B16: GluN3A subunit: N275Q (protein)
parent chain: B1 parent chain
B17: GluN3A subunit: N285Q (protein)
parent chain: B1 parent chain
B18: GluN3A subunit: N296Q (protein)
parent chain: B1 parent chain
B19: GluN3A subunit: N300Q (protein)
parent chain: B1 parent chain
B20: GluN3A subunit: N320Q (protein)
parent chain: B1 parent chain
B21: GluN3A subunit: N426Q (protein)
parent chain: B1 parent chain
B22: GluN3A subunit: N439Q (protein)
parent chain: B1 parent chain
B23: GluN3A subunit: N549Q (protein)
parent chain: B1 parent chain
B24: GluN3A subunit: N565Q (protein)
parent chain: B1 parent chain
B25: GluN3A subunit: N886Q (protein)
parent chain: B1 parent chain
B26: GluN3A subunit: ALG8-CDG (protein)
parent chain: B1 parent chain
B27: GluN3A subunit: DPAGT1-CDG (protein)
parent chain: B1 parent chain

test: surface biotinylation, endogenous GluN3A, rat hippocampal neurons; details: glycan changed form; control: untreated

Protein | localisation_or_trafficking
B1 | no change
B2 | no change
B3 | no change
B4 | no change

same assay, conditions: glycan lost; control: untreated

Protein | localisation_or_trafficking
B5 | decreases

test: surface immunofluorescence, GluN1/GluN3A in COS-7; details: glycan changed form; control: untreated

Protein | localisation_or_trafficking
B1 | no change
B2 | no change
B3 | no change
B4 | no change

same assay, conditions: glycan lost; control: untreated

Protein | localisation_or_trafficking
B5 | decreases

test: whole-cell patch clamp, 500 μM glycine, HEK293; details: glycan lost; control: wild-type GluN1/GluN3A, untreated

Protein | other: channel desensitisation (τw), other: τw of desensitization
B6 | no change
B7 | no change

test: surface/total GFP immunofluorescence, GFP-GluN3A in hippocampal neurons; details: glycan changed form; control: untreated

Protein | localisation_or_trafficking
B1 | no change
B2 | no change
B3 | no change
B4 | no change

same assay, conditions: glycan lost; control: untreated

Protein | localisation_or_trafficking
B5 | decreases

test: spine/shaft GFP fluorescence ratio, hippocampal neurons; details: glycan lost; control: wild-type GluN3A

Protein | localisation_or_trafficking
B8 | decreases
B6 | decreases

test: surface/total immunofluorescence, COS-7, with GluN1-4a; details: glycan lost; control: wild-type GluN1/GluN3A

Protein | localisation_or_trafficking
B8 | abolishes
B9 | decreases
B10 | no change
B6 | decreases
B11 | no change
B12 | no change
B13 | no change
B14 | no change
B15 | no change
B16 | no change
B17 | no change
B18 | no change
B19 | no change
B20 | no change
B21 | no change
B22 | no change
B23 | no change
B24 | no change
B25 | no change

test: surface/total GFP immunofluorescence, hippocampal neuron dendrites; details: glycan lost; control: wild-type GluN3A

Protein | localisation_or_trafficking
B8 | decreases
B9 | decreases
B10 | no change
B6 | decreases

test: surface immunofluorescence, GluN1/GluN3A in human CDG patient fibroblasts; details: glycan lost; control: control fibroblasts

Protein | localisation_or_trafficking
B26 | decreases
B27 | no change
